Test results: patent publication US20070178531A1 (BIOCHECK, published 2007)

Experiments:
Human Id1: Histidine [1] = molecular target: T1, Human Id1: Histidine (human, UniProt P41134 1-155, limits assumed); experiment: ELISA, Ab 0.100 µg/ml
T1 construct: Fusion protein made in E. coli from vector pGW07; also called h-Id1: his; not shown: His tag
T1 sequence (looked up): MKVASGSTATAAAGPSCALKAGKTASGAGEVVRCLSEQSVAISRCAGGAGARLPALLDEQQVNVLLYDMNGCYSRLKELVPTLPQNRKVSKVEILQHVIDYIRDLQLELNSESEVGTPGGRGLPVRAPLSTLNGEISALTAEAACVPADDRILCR
Protocol: (§1) The rabbit monoclonal anti-human Id3 (clone #3-3) and the rabbit monoclonal anti-mouse/human Id3 (clones #6-1, 16-1, 17-3, and 42-1) produced in Example 6 were tested reactivity against the following antigens: mouse Id1:His, human Id1:His, mouse Id2:His, human Id2:His, mouse Id3:His, human Id3:His, mouse Id4:His, human Id4:His and GST.
(§2) 1. Microtiter wells (prepared in accordance with Example 6) were coated (0.1 μg/well) with mouse Id1:His, human Id1:His, human Id2:His, human Id3:His, and 1.0 μg/well with GST. [0155] 2. Antibody Diluent: 0.25% (w/v) BSA in 0.015M KPO₄ Buffer, 0.85% (w/v) NaCl, 0.1% (w/v) NaN₃, pH=7.40 [0156] 3. Rabbit monoclonal anti-human Id3 (clone #3-3) prepared in Example 7 was diluted to […] with the antibody diluent. […] 4. Rabbit monoclonal anti-mouse/human Id3 (clones #6-1, 16-1, 17-3, 42-1) prepared in Example 7 was diluted to 0.005, 0.010, 0.025, 0.05, 0.10, 0.25, and 0.50 μg/ml with the antibody diluent. […] 5. Conjugate Diluent: 50% (v/v) which consists of an aqueous solution containing Fetal Bovine Serum in 0.05 M Tris, 1% (v/v) Proclin-300, pH 7.6. [0159] 6. Conjugate: Goat anti-rabbit IgG (H+L)-HRP conjugate. [0160] 7. TMB reagent. […] 8. Stop solution (1 N HCI). Method
(§3) 1. Dispense 100 μL of antibody diluent, diluted rabbit monoclonal human Id3, and mouse/human Id3 hybridoma supernatants into appropriate wells. […] 2. Incubate at room temperature with mechanical shaking at 750 rpm for 90 minutes. [0165] 3. Remove the incubation mixture by flicking plate content into an appropriate waste container followed by rinsing the wells 5 times with distilled water. [0166] 4. Strike the wells sharply onto absorbent paper or paper towels to remove all residual water droplets. [0167] 5. Dispense 100 μL of 1:50,000 Goat Anti-Rabbit IgG-HRP Conjugate Reagent into each well. Gently mix for 5 seconds. [0168] 6. Incubate at room temperature with mechanical shaking at 750 rpm for 90 minutes. [0169] 7. Repeat procedures 3 and 4. [0170] 8. Dispense 100 μL of TMB Reagent into each well. Gently mix for 5 seconds. [0171] 9. Incubate at room temperature with mechanical shaking at 750 rpm for 20 minutes. […] 10.

[2] = molecular target: T2, glutathione S-transferase (GST) (UniProt P08515 1-218 = GST); experiment: ELISA, Ab 0.100 µg/ml
T2 construct: also called carrier protein GST
T2 sequence (P08515 whole entry): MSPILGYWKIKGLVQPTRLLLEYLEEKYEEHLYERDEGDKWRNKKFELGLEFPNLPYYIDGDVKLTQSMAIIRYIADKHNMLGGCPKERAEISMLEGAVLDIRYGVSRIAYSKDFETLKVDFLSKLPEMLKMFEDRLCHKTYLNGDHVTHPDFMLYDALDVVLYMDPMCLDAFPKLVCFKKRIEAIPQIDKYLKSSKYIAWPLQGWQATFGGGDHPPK
Protocol: as §1, §2, §3

Human Id1: Histidine [3] = molecular target: T1, Human Id1: Histidine; experiment: ELISA, Ab 0.005 µg/ml
Protocol: as §1, §2, §3

Human Id2: Histidine = molecular target: T3, Human Id2: Histidine (human, UniProt Q02363 1-134, limits assumed); experiment: ELISA, Ab 0.005 µg/ml
T3 construct: Fusion protein made in E. coli from vector pGW07; also called h-Id2: His; not shown: His tag
T3 sequence (looked up): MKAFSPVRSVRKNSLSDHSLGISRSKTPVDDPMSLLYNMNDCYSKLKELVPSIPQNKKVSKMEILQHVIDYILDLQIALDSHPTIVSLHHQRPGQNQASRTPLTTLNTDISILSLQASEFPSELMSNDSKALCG
Protocol: as §1, §2, §3

Mouse Id1: Histidine = molecular target: T4, Mouse Id1: Histidine (mouse, UniProt P20067-2 1-148, limits assumed); experiment: ELISA, Ab 0.005 µg/ml
T4 construct: Fusion protein made in E. coli from vector pGW07; also called m-Id1-His; not shown: His tag
T4 sequence (looked up): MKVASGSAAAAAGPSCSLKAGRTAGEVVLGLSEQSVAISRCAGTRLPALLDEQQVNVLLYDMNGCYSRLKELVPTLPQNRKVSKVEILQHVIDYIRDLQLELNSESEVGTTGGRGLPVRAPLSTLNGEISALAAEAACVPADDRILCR
Protocol: as §1, §2, §3

Mouse Id2: Histidine = molecular target: T5, Mouse Id2: Histidine (mouse, UniProt P41136 1-134, limits assumed); experiment: ELISA, Ab 0.005 µg/ml
T5 construct: Fusion protein made in E. coli from vector pGW07; also called m-Id2: His; not shown: His tag
T5 sequence (looked up): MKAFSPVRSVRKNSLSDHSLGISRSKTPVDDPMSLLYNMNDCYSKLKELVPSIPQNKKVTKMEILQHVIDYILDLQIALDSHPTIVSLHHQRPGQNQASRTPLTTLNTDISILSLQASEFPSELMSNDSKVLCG
Protocol: as §1, §2, §3

Mouse Id3: Histidine [4] = molecular target: T6, Mouse Id3: Histidine (mouse, UniProt P41133 1-119); experiment: ELISA, Ab 0.050 µg/ml
T6 construct: Fusion protein made in E. coli from vector pGW07; also called m-Id3: His; Mouse Id3 (coated wells); not shown: His tag
T6 sequence: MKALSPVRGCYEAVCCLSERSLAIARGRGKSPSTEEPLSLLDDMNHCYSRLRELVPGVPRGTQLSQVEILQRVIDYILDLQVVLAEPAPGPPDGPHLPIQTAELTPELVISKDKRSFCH
Protocol: as §1, §2, §3

Human Id3: Histidine [5] = molecular target: T7, Human Id3: Histidine (human, UniProt Q02535 1-119 at identity 1.00)); experiment: ELISA, Ab 0.100 µg/ml
T7 construct: Fusion protein made in E. coli from vector pGW07; also called h-Id3: His; Human Id3 (coated wells); not shown: His tag
T7 chain: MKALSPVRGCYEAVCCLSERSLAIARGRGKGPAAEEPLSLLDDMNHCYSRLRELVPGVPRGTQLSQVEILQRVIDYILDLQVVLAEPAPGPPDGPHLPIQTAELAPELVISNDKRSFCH
Protocol: as §1, §2, §3

Mouse Id3: Histidine [6] = molecular target: T6, Mouse Id3: Histidine; experiment: ELISA, Ab 0.100 µg/ml
Protocol: as §1, §2, §3

Human Id3: Histidine [7] = molecular target: T7, Human Id3: Histidine; experiment: ELISA, Ab 0.005 µg/ml
Protocol: as §1, §2, §3

Mouse Id3: Histidine [8] = molecular target: T6, Mouse Id3: Histidine; experiment: ELISA, Ab 0.005 µg/ml
Protocol: as §1, §2, §3

B1: rabbit monoclonal anti-human Id3, clone #BCH-4/#3-3 (antibody, V domains shown)
VH: QSVEESGGRLVTPGTPLTLTCTVSGIDLSSYAMSWVRQAPGKGLEWIGVIFPSNNVYYASWAKGRFTISKTSTTVDLKITSPTTEDTATYFCASMGAFDSWGPGTLVTVSS
VL: QVLTQTPSPVSAAVGGTVTINCQASQSIYNDNDLAWFQQKPGQPPKLLIYDASTLTSGVPSRFKGSGSGTQFTLTISDLDCDDAATYYCAARYSGNIYGFGGGTEVVVK
notes: Rabbit IgG from a rabbit hybridoma; also called h Id3 MoAb 3-3
Work on B1 yielded an A450 (Human Id1: Histidine [1]) of 0.047 A450, an A450 [2] of 0.048 A450 and an A450 (Human Id1: Histidine [3]) of 0.047 A450. The A450 (Human Id2: Histidine) was 0.044 A450, the A450 (Mouse Id1: Histidine) was 0.044 A450 and the A450 (Mouse Id2: Histidine) was 0.048 A450.

B2: rabbit monoclonal anti-mouse/human Id3, clone #BCH-4/#16-1 (antibody, V domains shown)
VH: QSVEESGGRLVTPGTPLTLTCTASGFSLSSYYIHWVRQAPGKALEWIGYISDGGTTYYASWAKGRFTISKTSSTTVDLKMTSLTTEDTATYFCARQGFNIWGPGTLVTVSL
VL: AVLTQTPSPVSAAVGGTVTISCQSSQSVYNNNWLSWFQQKSGQPPKLLIYETSKLESGVPSRFKGSGSGTQFTLTIIDVQCDDAATYYCLGGYWTTSDNNIFGGGTEVVVK
notes: Rabbit IgG from a rabbit hybridoma; also called m/h Id3 MoAb 16-1
In the case of B2, the A450 (Mouse Id3: Histidine [4]) is reported as 1.57 A450, the A450 (Human Id1: Histidine [1]) is reported as 0.047 A450 and the A450 [2] is reported as 0.049 A450. For the same binder, the A450 (Human Id3: Histidine [5]) was 1.99 A450, the A450 (Mouse Id3: Histidine [6]) was 2.28 A450 and the A450 (Human Id1: Histidine [3]) was 0.042 A450. It also gave an A450 (Human Id2: Histidine) of 0.046 A450, an A450 (Mouse Id1: Histidine) of 0.046 A450 and an A450 (Mouse Id2: Histidine) of 0.045 A450. It also gave an A450 (Human Id3: Histidine [7]) of 0.228 A450 and an A450 (Mouse Id3: Histidine [8]) of 0.24 A450.

B3: rabbit monoclonal anti-mouse/human Id3, clone #BCH-4/#17-3 (antibody, V domains shown)
VH: QSVEESGGRLVTPGTPLTLTCTASGFSLSNVYIHWVRQAPGKGLEWIGYISDGDTARYATWAKGRFTISKTSSTTVNLKMTSLTTEDTATYFCARQGFNIWGPGTLVTVSL
VL: AVLTQTPSPVSAAVGGTVSISCQSSQSVWNNNWLSWFQQKPGQPPKLLIYETSKLESGVPSRFKGSGSGTQFTLTISDVQCDDAATYYCLGGYWTTSDNNVFGGGTEVVVK
notes: Rabbit IgG from a rabbit hybridoma; also called m/h Id3 MoAb 17-3; BCH-3/#17-3
Binder B3 has an A450 (Mouse Id3: Histidine [4]) of 2.19 A450, an A450 (Human Id1: Histidine [1]) of 0.048 A450 and an A450 [2] of 0.052 A450. The A450 (Human Id3: Histidine [5]) was 2.6 A450, the A450 (Mouse Id3: Histidine [6]) was 2.91 A450 and the A450 (Human Id1: Histidine [3]) was 0.044 A450. For the same binder, the A450 (Human Id2: Histidine) was 0.045 A450, the A450 (Mouse Id1: Histidine) was 0.048 A450 and the A450 (Mouse Id2: Histidine) was 0.052 A450. For the same binder, the A450 (Human Id3: Histidine [7]) was 0.33 A450 and the A450 (Mouse Id3: Histidine [8]) was 0.39 A450.

B4: rabbit monoclonal anti-mouse/human Id3, clone #BCH-4/#6-1 (antibody, V domains shown)
VH: QSVEESGGRLVTPGTPLTLTCTASGFSLSNVYIHWVRQAPGKGLEWIGYISDGDTARYATWAKGRFTISKTSSTTVNLKMTSLTTEDTATYFCARQGFNIWGPGTLVTVSL
VL: AVLTQTPSPVSAAVGGTVSISCQSSQSVWNNNWLSWFQQKPGQPPKLLIYETSKLESGVPSRFKGSGSGTQFTLTISDVQCDDAATYYCLGGYWTTSDNNVFGGGTEVVVK
notes: Rabbit IgG from a rabbit hybridoma; also called m/h Id3 MoAb 6-1
B4 gave an A450 (Mouse Id3: Histidine [4]) of 1.75 A450, an A450 (Human Id1: Histidine [1]) of 0.049 A450 and an A450 [2] of 0.047 A450. For the same binder, the A450 (Human Id3: Histidine [5]) was 2.36 A450, the A450 (Mouse Id3: Histidine [6]) was 2.56 A450 and the A450 (Human Id1: Histidine [3]) was 0.044 A450. For the same binder, the A450 (Human Id2: Histidine) was 0.045 A450, the A450 (Mouse Id1: Histidine) was 0.047 A450 and the A450 (Mouse Id2: Histidine) was 0.046 A450. For the same binder, the A450 (Human Id3: Histidine [7]) was 0.275 A450 and the A450 (Mouse Id3: Histidine [8]) was 0.312 A450.

B5: rabbit monoclonal anti-mouse/human Id3, clone #BCH-4/#42-1 (antibody, V domains shown)
VH: QSVEESGGRLVTPGTPLTLTCTASGFSLSSYYIHWVRQAPGKALEWIGYISDGGTTYYASWAKGRFTISKTSSTTVDLKMTSLTTEDTATYFCARQGFNIWGPGTLVTVSL
VL: AVLTQTPSPVSAAVGGTVTISCQSSQSVYNNNWLSWFQQKSGQPPKLLIYETSKLESGVPSRFKGSGSGTQFTLTIIDVQCDDAATYYCLGGYWSTSDNNIFGGGTEVVVK
notes: Rabbit IgG from a rabbit hybridoma; also called m/h Id3 MoAb 42-1
In the case of B5, the A450 (Mouse Id3: Histidine [4]) is reported as 2.23 A450, the A450 (Human Id1: Histidine [1]) is reported as 0.047 A450 and the A450 [2] is reported as 0.049 A450. For the same binder, the A450 (Human Id3: Histidine [5]) was 2.6 A450, the A450 (Mouse Id3: Histidine [6]) was 2.87 A450 and the A450 (Human Id1: Histidine [3]) was 0.046 A450. The A450 (Human Id2: Histidine) was 0.043 A450, the A450 (Mouse Id1: Histidine) was 0.045 A450 and the A450 (Mouse Id2: Histidine) was 0.05 A450. The A450 (Human Id3: Histidine [7]) was 0.382 A450 and the A450 (Mouse Id3: Histidine [8]) was 0.437 A450.
